Measured values from the supplement of paper PMC10724198.
± gives the standard deviation of the averaged measurements.

Assays:
Saccharomyces cerevisiae [1] = experiment: protein stability index of tFT-peptide fusion (C-terminal peptide) (PSI (0-1 scale)); higher = more stable (slower turnover); conditions: genetic background: wild type; temperature: 30 C
Saccharomyces cerevisiae [2] = experiment: as above
Method: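 MPS profiling in S. cerevisiae of the tFT-X12 degron library: putative degron peptides plus stable controls, 12 aa, fused to the C-terminus of a sfGFP-mCherry timer. Cells are FACS-sorted into 8 mCherry/sfGFP bins and deep-sequenced. PSI runs from 0 (unstable) to 1 (stable). Backgrounds are wild type, das1Δ and doa10Δ at 30 °C, and wild type, das1Δ, cdc34-1 and cdc53-1 at 37 °C; 2-3 technical replicates each.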

[3] = genetic background: cdc34-1, temperature: 37 C
[4] = genetic background: cdc53-1, temperature: 37 C
[5] = genetic background: das1 deletion, temperature: 30 C
[6] = genetic background: das1 deletion, temperature: 37 C
[7] = genetic background: doa10 deletion, temperature: 30 C
[8] = genetic background: wild type, temperature: 30 C
[9] = genetic background: wild type, temperature: 37 C
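Further: PSI is a weighted mean of sequencing reads over stability bins, variants kept only with over 10 reads, mCherry proximal and sfGFP distal, peptide attached via GGGS linker.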

GWVVVVCGVCCG
protein stability index (Saccharomyces cerevisiae [1]): 0.285 ± 0.011 | protein stability index (Saccharomyces cerevisiae [2]; [3]): 0.178 ± 0.0072 | protein stability index (Saccharomyces cerevisiae [2]; [4]): 0.22 ± 0.033 | protein stability index (Saccharomyces cerevisiae [2]; [5]): 0.208 ± 0.026 | protein stability index (Saccharomyces cerevisiae [2]; [6]): 0.307 ± 0.016 | protein stability index (Saccharomyces cerevisiae [2]; [7]): 0.167 ± 0.0077 | protein stability index (Saccharomyces cerevisiae [2]; [8]): 0.196 ± 0.024 | protein stability index (Saccharomyces cerevisiae [2]; [9]): 0.28 ± 0.012

GYSMPVSFFFAL
protein stability index (Saccharomyces cerevisiae [1]): 0.356 ± 0.0092 | protein stability index (Saccharomyces cerevisiae [2]; [3]): 0.669 ± 0.057 | protein stability index (Saccharomyces cerevisiae [2]; [4]): 0.779 ± 0.012 | protein stability index (Saccharomyces cerevisiae [2]; [5]): 0.616 ± 0.017 | protein stability index (Saccharomyces cerevisiae [2]; [6]): 0.745 ± 0.0082 | protein stability index (Saccharomyces cerevisiae [2]; [7]): 0.201 ± 0.011 | protein stability index (Saccharomyces cerevisiae [2]; [8]): 0.24 ± 0.017 | protein stability index (Saccharomyces cerevisiae [2]; [9]): 0.453 ± 0.014

HFASPPAPRSNL
protein stability index (Saccharomyces cerevisiae [1]): 0.765 ± 0.0023 | protein stability index (Saccharomyces cerevisiae [2]; [3]): 0.799 ± 0.051 | protein stability index (Saccharomyces cerevisiae [2]; [4]): 0.819 ± 0.023 | protein stability index (Saccharomyces cerevisiae [2]; [5]): 0.762 ± 0.03 | protein stability index (Saccharomyces cerevisiae [2]; [6]): 0.81 ± 0.016 | protein stability index (Saccharomyces cerevisiae [2]; [7]): 0.785 ± 0.032 | protein stability index (Saccharomyces cerevisiae [2]; [8]): 0.785 ± 0.032 | protein stability index (Saccharomyces cerevisiae [2]; [9]): 0.792 ± 0.014

HFLLAFMLCFGQ
protein stability index (Saccharomyces cerevisiae [1]): 0.466 ± 0.044 | protein stability index (Saccharomyces cerevisiae [2]; [3]): 0.4512 ± 0.0045 | protein stability index (Saccharomyces cerevisiae [2]; [4]): 0.476 ± 0.0097 | protein stability index (Saccharomyces cerevisiae [2]; [5]): 0.359 ± 0.039 | protein stability index (Saccharomyces cerevisiae [2]; [6]): 0.504 ± 0.0076 | protein stability index (Saccharomyces cerevisiae [2]; [7]): 0.336 ± 0.011 | protein stability index (Saccharomyces cerevisiae [2]; [8]): 0.356 ± 0.021 | protein stability index (Saccharomyces cerevisiae [2]; [9]): 0.476 ± 0.024

HLILWLFFVIVF
protein stability index (Saccharomyces cerevisiae [1]): 0.304 ± 0.23 | protein stability index (Saccharomyces cerevisiae [2]; [3]): 0.237 ± 0.012 | protein stability index (Saccharomyces cerevisiae [2]; [4]): 0.193 ± 0.047 | protein stability index (Saccharomyces cerevisiae [2]; [5]): 0.216 ± 0.024 | protein stability index (Saccharomyces cerevisiae [2]; [6]): 0.333 ± 0.0038 | protein stability index (Saccharomyces cerevisiae [2]; [7]): 0.237 ± 0.012 | protein stability index (Saccharomyces cerevisiae [2]; [8]): 0.186 ± 0.012 | protein stability index (Saccharomyces cerevisiae [2]; [9]): 0.271 ± 0.0074

HLRWYITGIVWF
protein stability index (Saccharomyces cerevisiae [1]): 0.4216 ± 0.00048 | protein stability index (Saccharomyces cerevisiae [2]; [3]): 0.4885 ± 0.0024 | protein stability index (Saccharomyces cerevisiae [2]; [5]): 0.413 ± 0.11 | protein stability index (Saccharomyces cerevisiae [2]; [6]): 0.671 ± 0.17 | protein stability index (Saccharomyces cerevisiae [2]; [7]): 0.311 ± 0.019 | protein stability index (Saccharomyces cerevisiae [2]; [8]): 0.359 ± 0.087 | protein stability index (Saccharomyces cerevisiae [2]; [9]): 0.543 ± 0.017

HPRPRPPPLPPP
protein stability index (Saccharomyces cerevisiae [1]): 0.508 ± 0.032 | protein stability index (Saccharomyces cerevisiae [2]; [3]): 0.4633 ± 0.00058 | protein stability index (Saccharomyces cerevisiae [2]; [4]): 0.546 ± 0.019 | protein stability index (Saccharomyces cerevisiae [2]; [5]): 0.504 ± 0.006 | protein stability index (Saccharomyces cerevisiae [2]; [6]): 0.523 ± 0.021 | protein stability index (Saccharomyces cerevisiae [2]; [7]): 0.544 ± 0.0083 | protein stability index (Saccharomyces cerevisiae [2]; [8]): 0.487 ± 0.03 | protein stability index (Saccharomyces cerevisiae [2]; [9]): 0.4943 ± 0.0044

HRARILLIRICP
protein stability index (Saccharomyces cerevisiae [1]): 0.415 ± 0.017 | protein stability index (Saccharomyces cerevisiae [2]; [3]): 0.486 ± 0.024 | protein stability index (Saccharomyces cerevisiae [2]; [4]): 0.517 ± 0.011 | protein stability index (Saccharomyces cerevisiae [2]; [5]): 0.411 ± 0.024 | protein stability index (Saccharomyces cerevisiae [2]; [6]): 0.64 ± 0.019 | protein stability index (Saccharomyces cerevisiae [2]; [7]): 0.5034 ± 0.0046 | protein stability index (Saccharomyces cerevisiae [2]; [8]): 0.42 ± 0.032 | protein stability index (Saccharomyces cerevisiae [2]; [9]): 0.585 ± 0.029

HRFCAPSLSASD
protein stability index (Saccharomyces cerevisiae [1]): 0.697 ± 0.062 | protein stability index (Saccharomyces cerevisiae [2]; [3]): 0.675 ± 0.007 | protein stability index (Saccharomyces cerevisiae [2]; [4]): 0.722 ± 0.013 | protein stability index (Saccharomyces cerevisiae [2]; [5]): 0.6628 ± 0.0047 | protein stability index (Saccharomyces cerevisiae [2]; [6]): 0.7288 ± 0.0054 | protein stability index (Saccharomyces cerevisiae [2]; [7]): 0.665 ± 0.024 | protein stability index (Saccharomyces cerevisiae [2]; [8]): 0.666 ± 0.012 | protein stability index (Saccharomyces cerevisiae [2]; [9]): 0.696 ± 0.0086

HVLALIFLYIPD
protein stability index (Saccharomyces cerevisiae [1]): 0.4163 ± 0.0012 | protein stability index (Saccharomyces cerevisiae [2]; [3]): 0.43 ± 0.045 | protein stability index (Saccharomyces cerevisiae [2]; [4]): 0.55 ± 0.032 | protein stability index (Saccharomyces cerevisiae [2]; [5]): 0.33 ± 0.037 | protein stability index (Saccharomyces cerevisiae [2]; [6]): 0.5422 ± 0.0044 | protein stability index (Saccharomyces cerevisiae [2]; [7]): 0.317 ± 0.021 | protein stability index (Saccharomyces cerevisiae [2]; [8]): 0.355 ± 0.019 | protein stability index (Saccharomyces cerevisiae [2]; [9]): 0.501 ± 0.0067

HWVRLSSLAFVS
protein stability index (Saccharomyces cerevisiae [1]): 0.176 ± 0.01 | protein stability index (Saccharomyces cerevisiae [2]; [3]): 0.2245 ± 0.0018 | protein stability index (Saccharomyces cerevisiae [2]; [4]): 0.289 ± 0.011 | protein stability index (Saccharomyces cerevisiae [2]; [5]): 0.289 ± 0.036 | protein stability index (Saccharomyces cerevisiae [2]; [6]): 0.233 ± 0.0082 | protein stability index (Saccharomyces cerevisiae [2]; [7]): 0.202 ± 0.022 | protein stability index (Saccharomyces cerevisiae [2]; [8]): 0.183 ± 0.014 | protein stability index (Saccharomyces cerevisiae [2]; [9]): 0.1895 ± 0.00075

IACISCLLCVVV
protein stability index (Saccharomyces cerevisiae [1]): 0.508 ± 0.015 | protein stability index (Saccharomyces cerevisiae [2]; [3]): 0.608 ± 0.042 | protein stability index (Saccharomyces cerevisiae [2]; [4]): 0.649 ± 0.038 | protein stability index (Saccharomyces cerevisiae [2]; [5]): 0.479 ± 0.025 | protein stability index (Saccharomyces cerevisiae [2]; [6]): 0.607 ± 0.017 | protein stability index (Saccharomyces cerevisiae [2]; [7]): 0.479 ± 0.022 | protein stability index (Saccharomyces cerevisiae [2]; [8]): 0.504 ± 0.0075 | protein stability index (Saccharomyces cerevisiae [2]; [9]): 0.589 ± 0.0073

IEVACLLTAFCD
protein stability index (Saccharomyces cerevisiae [1]): 0.251 ± 0.027 | protein stability index (Saccharomyces cerevisiae [2]; [3]): 0.22 ± 0.026 | protein stability index (Saccharomyces cerevisiae [2]; [4]): 0.262 ± 0.0062 | protein stability index (Saccharomyces cerevisiae [2]; [5]): 0.257 ± 0.028 | protein stability index (Saccharomyces cerevisiae [2]; [6]): 0.225 ± 0.0027 | protein stability index (Saccharomyces cerevisiae [2]; [7]): 0.282 ± 0.043 | protein stability index (Saccharomyces cerevisiae [2]; [8]): 0.266 ± 0.033 | protein stability index (Saccharomyces cerevisiae [2]; [9]): 0.209 ± 0.0052

IFCRCNSTVLLI
protein stability index (Saccharomyces cerevisiae [1]): 0.451 ± 0.024 | protein stability index (Saccharomyces cerevisiae [2]; [3]): 0.547 ± 0.035 | protein stability index (Saccharomyces cerevisiae [2]; [4]): 0.633 ± 0.013 | protein stability index (Saccharomyces cerevisiae [2]; [5]): 0.483 ± 0.021 | protein stability index (Saccharomyces cerevisiae [2]; [6]): 0.5959 ± 0.0016 | protein stability index (Saccharomyces cerevisiae [2]; [7]): 0.365 ± 0.055 | protein stability index (Saccharomyces cerevisiae [2]; [8]): 0.37 ± 0.018 | protein stability index (Saccharomyces cerevisiae [2]; [9]): 0.522 ± 0.021

IFFYQLYVDRLC
protein stability index (Saccharomyces cerevisiae [1]): 0.151 ± 0.059 | protein stability index (Saccharomyces cerevisiae [2]; [3]): 0.227 ± 0.05 | protein stability index (Saccharomyces cerevisiae [2]; [4]): 0.292 ± 0.0067 | protein stability index (Saccharomyces cerevisiae [2]; [5]): 0.229 ± 0.035 | protein stability index (Saccharomyces cerevisiae [2]; [6]): 0.412 ± 0.011 | protein stability index (Saccharomyces cerevisiae [2]; [7]): 0.0857 ± 0.012 | protein stability index (Saccharomyces cerevisiae [2]; [8]): 0.0803 ± 0.01 | protein stability index (Saccharomyces cerevisiae [2]; [9]): 0.0746 ± 0.0054

IFSGCRIALSVF
protein stability index (Saccharomyces cerevisiae [1]): 0.181 ± 0.0085 | protein stability index (Saccharomyces cerevisiae [2]; [3]): 0.0412 ± 0.013 | protein stability index (Saccharomyces cerevisiae [2]; [4]): 0.052 ± 0.021 | protein stability index (Saccharomyces cerevisiae [2]; [5]): 0.188 ± 0.018 | protein stability index (Saccharomyces cerevisiae [2]; [6]): 0.165 ± 0.012 | protein stability index (Saccharomyces cerevisiae [2]; [7]): 0.104 ± 0.0034 | protein stability index (Saccharomyces cerevisiae [2]; [8]): 0.116 ± 0.01 | protein stability index (Saccharomyces cerevisiae [2]; [9]): 0.0944 ± 0.039

IFSTQMVRFSLL
protein stability index (Saccharomyces cerevisiae [1]): 0.362 ± 0.019 | protein stability index (Saccharomyces cerevisiae [2]; [3]): 0.629 ± 0.052 | protein stability index (Saccharomyces cerevisiae [2]; [4]): 0.7324 ± 0.0061 | protein stability index (Saccharomyces cerevisiae [2]; [5]): 0.662 ± 0.0074 | protein stability index (Saccharomyces cerevisiae [2]; [6]): 0.7692 ± 0.0033 | protein stability index (Saccharomyces cerevisiae [2]; [7]): 0.261 ± 0.0058 | protein stability index (Saccharomyces cerevisiae [2]; [8]): 0.272 ± 0.017 | protein stability index (Saccharomyces cerevisiae [2]; [9]): 0.422 ± 0.018

IFVFVSFPSCVL
protein stability index (Saccharomyces cerevisiae [1]): 0.468 ± 0.012 | protein stability index (Saccharomyces cerevisiae [2]; [3]): 0.603 ± 0.062 | protein stability index (Saccharomyces cerevisiae [2]; [4]): 0.644 ± 0.022 | protein stability index (Saccharomyces cerevisiae [2]; [5]): 0.56 ± 0.041 | protein stability index (Saccharomyces cerevisiae [2]; [6]): 0.627 ± 0.0096 | protein stability index (Saccharomyces cerevisiae [2]; [7]): 0.35 ± 0.0042 | protein stability index (Saccharomyces cerevisiae [2]; [8]): 0.399 ± 0.026 | protein stability index (Saccharomyces cerevisiae [2]; [9]): 0.568 ± 0.03

ILFWSLLVSTIR
protein stability index (Saccharomyces cerevisiae [1]): 0.177 ± 0.082 | protein stability index (Saccharomyces cerevisiae [2]; [3]): 0.13 ± 0.031 | protein stability index (Saccharomyces cerevisiae [2]; [4]): 0.223 ± 0.056 | protein stability index (Saccharomyces cerevisiae [2]; [5]): 0.174 ± 0.034 | protein stability index (Saccharomyces cerevisiae [2]; [6]): 0.263 ± 0.0027 | protein stability index (Saccharomyces cerevisiae [2]; [7]): 0.137 ± 0.017 | protein stability index (Saccharomyces cerevisiae [2]; [8]): 0.149 ± 0.035 | protein stability index (Saccharomyces cerevisiae [2]; [9]): 0.266 ± 0.004

ILRAGITYVYAV
protein stability index (Saccharomyces cerevisiae [1]): 0.399 ± 0.04 | protein stability index (Saccharomyces cerevisiae [2]; [3]): 0.515 ± 0.014 | protein stability index (Saccharomyces cerevisiae [2]; [4]): 0.544 ± 0.036 | protein stability index (Saccharomyces cerevisiae [2]; [5]): 0.325 ± 0.038 | protein stability index (Saccharomyces cerevisiae [2]; [6]): 0.5463 ± 0.0033 | protein stability index (Saccharomyces cerevisiae [2]; [7]): 0.264 ± 0.0082 | protein stability index (Saccharomyces cerevisiae [2]; [8]): 0.296 ± 0.016 | protein stability index (Saccharomyces cerevisiae [2]; [9]): 0.493 ± 0.013
